# Experiments:
# HA tagged hUpf1/SMG-2 = HA tagged hUpf1/SMG-2 (UniProt Q92900)
# [1] = target: MBP fusion protein of the hUpf1/SMG-2 partial fragment at the N-terminal side (UniProt Q92900)
# [2] = system: fusion protein of the 14mer peptide (control) including S15 in the p53 protein and GST [GST: P08515]
# [3] = system: hUpf1/SMG-2 fusion protein (S1096) [GST: P08515]
# [4] = target: MBP fusion protein of the hUpf1/SMG-2 partial fragment at the C-terminal side (UniProt Q92900)
# [5] = system: GST fusion protein including S1078 (14mer peptide of hUpf1/SMG-2) [GST: P08515]
substance,measurement,setting,value
6H-hSMG-1 (fusion protein of human SMG-1 partial fragment 107-3657 and His tag),"phosphorylation of substrate (in vitro kinase assay, 32P autoradiography)",HA tagged hUpf1/SMG-2,purified 6H-hSMG-1 phosphorylated HA-hUpf1/SMG-2
same,"phosphorylation of substrate (in vitro kinase assay, 32P autoradiography)",[1],the fragments of hUpf1/SMG-2 at the C-terminal side and at the N-terminal side performed the role of good substrates for hSMG-1
same,"phosphorylation of substrate (in vitro kinase assay, 32P autoradiography)",[2],the control construct encoding the SQ motif in the p53 protein was phosphorylated by hSMG-1
same,"phosphorylation of substrate (in vitro kinase assay, 32P autoradiography)",[3],the GST fusion protein including S1078 or the GST fusion protein including S1096 ... was efficiently phosphorylated by 6H-hSMG-1
same,"phosphorylation of substrate (in vitro kinase assay, 32P autoradiography)",[4],the fragments of hUpf1/SMG-2 at the C-terminal side and at the N-terminal side performed the role of good substrates for hSMG-1
same,"phosphorylation of substrate (in vitro kinase assay, 32P autoradiography)",[5],the GST fusion protein including S1078 or the GST fusion protein including S1096 ... was efficiently phosphorylated by 6H-hSMG-1

# Reference: patent US20040137592
